Measurements as given in article PMC7094243.

Key:
[1] = target: T1, SARS coronavirus non-structural protein 15 (Nsp15), wild-type, His-tagged (SARS coronavirus (SARS-CoV)), P0C6X7; assay: AUC; settings: remark: other sources report otherwise
T1 chain: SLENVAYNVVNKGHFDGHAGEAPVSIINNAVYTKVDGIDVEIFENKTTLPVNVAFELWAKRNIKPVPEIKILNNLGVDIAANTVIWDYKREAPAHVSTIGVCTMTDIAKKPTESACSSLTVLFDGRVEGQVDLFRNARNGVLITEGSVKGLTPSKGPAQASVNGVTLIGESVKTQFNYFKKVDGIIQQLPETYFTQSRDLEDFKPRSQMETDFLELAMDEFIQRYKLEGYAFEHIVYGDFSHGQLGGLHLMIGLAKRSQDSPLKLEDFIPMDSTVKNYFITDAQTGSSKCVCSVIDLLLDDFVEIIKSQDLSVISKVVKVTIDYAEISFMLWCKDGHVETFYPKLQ

[2] = target: T1, SARS coronavirus non-structural protein …; assay: SEC; settings: remark: other sources report otherwise

B1: SARS coronavirus non-structural protein 15 (Nsp15), wild-type, His-tagged, P0C6X7 (enzyme)
chain: SLENVAYNVVNKGHFDGHAGEAPVSIINNAVYTKVDGIDVEIFENKTTLPVNVAFELWAKRNIKPVPEIKILNNLGVDIAANTVIWDYKREAPAHVSTIGVCTMTDIAKKPTESACSSLTVLFDGRVEGQVDLFRNARNGVLITEGSVKGLTPSKGPAQASVNGVTLIGESVKTQFNYFKKVDGIIQQLPETYFTQSRDLEDFKPRSQMETDFLELAMDEFIQRYKLEGYAFEHIVYGDFSHGQLGGLHLMIGLAKRSQDSPLKLEDFIPMDSTVKNYFITDAQTGSSKCVCSVIDLLLDDFVEIIKSQDLSVISKVVKVTIDYAEISFMLWCKDGHVETFYPKLQ
Question: With B1 as the binder, how does the stoichiometry N [1] read?
Answer: The stoichiometry N was 6.

Question: What about the percent of total protein hexameric [2] of the same binder?
Answer: The percent of total protein hexameric was 90%.

Question: And the stoichiometry N [2]?
Answer: Its stoichiometry N is 6.
